From patent US20140234331A1 (published 2014)
Each block holds one molecule with its values, some of them ahead of it.

Columns and labels:
[1] = target: Macaque CTLA-4 expressed on transfected T-cells (macaque); test: flow cytometry (FACScan) on cell line expressing recombinant macaque CTLA-4
[2] = target: T1, Recombinant CTLA-4 fusion protein comprising the extracellular domain of human CTLA-4 (R&D Systems Cat. … (human, UniProt P16410 36-161)); test: competitive ELISA with biotin labeled and unlabeled antibodies
T1 construct: extracellular domain; Bought protein; also called recombinant human CTLA-4 fusion protein; soluble CTLA-4; not shown: Factor Xa cleavage site and fusion partner (called Ig)
T1 sequence (looked up): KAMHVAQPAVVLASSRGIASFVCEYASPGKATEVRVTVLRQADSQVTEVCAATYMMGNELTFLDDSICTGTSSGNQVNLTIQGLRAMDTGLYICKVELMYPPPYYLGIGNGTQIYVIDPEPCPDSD
Description: Competitive ELISAs were done with biotin labeled and unlabeled antibodies to determine CTLA-4 epitope specificity. Four anti-CTLA-4 epitope binding groups were identified among the human antibodies, and an additional two epitopes were defined by the commercial murine monclonal antibodies BNI3 (Pharmingen, San Diego, Calif.), and 8H5 (Ancell Corp. Bayport, Minn.).

- MFI [1]: 4 MFI
Molecule: isotype control (Table 5) (antibody)

- binding result [2]: binds
B1: 1E2 (human anti-CTLA-4 monoclonal antibody) (antibody, V domains shown)
VH: QVQLVESGGGVVQPGRSLRLSCAASGFTFSSYGMHWVRQAPGKGLEWVAVIWYDGSNKYYADSVKGRFTISRDNSKNTLYLQMNSLRAEDTAVFYCARAPNYIGAFDVWGQGTMVTVSS
VL: DIQMTQSPSSLSASVGDRVTITCRASQGISSWLAWYQQKPEKAPKSLIYAASSLQSGVPSRFSGSGSGTDFTLTISSLQPEDFATYYCQQYNSYPPTFGQGTKVEIK
